B1: KRT71 (parent)
chain: ELRNVQDVVEDYKKRYEEEINKRT

Variants of: B1
Assay: protein stability index of a GFP-peptide fusion (GPS, HEK-293T) (PSI 1-6); higher = more stable
Conditions: c terminus: a fixed tail appended
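Note: lentivirally expressed fusions sorted by FACS into six bins by GFP to DsRed ratio, PSI derived from sequencing read proportions per bin multiplied by bin number.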

| Variant | protein stability index |
| --- | --- |
| ELRNVQDVVRDYKKRYEEEINKRT | 4 |
| ELRNVQDVVEDYKNRYEEEINKRT | 3.58 |
| ELRNVQDVVEDYKKRGEEEINKRT | 2.71 |
| ELRNVQDVVEDYHKRYEEEINKRT | 3.73 |
| ELRNVQDVVEDYKKRYEEEINKRL | 3.58 |
| ELRNVQQVVEDYKKRYEEEINKRT | 4.58 |
| ELRNVQDVVEDYKKRYEEEVNKRT | 4.2 |
| ELRNVQDVVEDYKKRYEEEIGKRT | 3.77 |
| ELRNVWDVVEDYKKRYEEEINKRT | 3.41 |
| ELRNVQDVTEDYKKRYEEEINKRT | 3.73 |
| ELRNVQDVVEDYKKRYYEEINKRT | 3.15 |
| ELRNVQDVVEDYKKRYGEEINKRT | 3.1 |
| ELRNVQDNVEDYKKRYEEEINKRT | 3.38 |
| ELRNVQDVVEDYKQRYEEEINKRT | 3.49 |
| ELRNVQDVVEDYKKRYEEEINART | 3.74 |
| ELRNVQDVHEDYKKRYEEEINKRT | 4.4 |
| ELRNVQDVVEDYKKRYEEEINFRT | 4.47 |
| ELRNVQDVVEDYKKRYEEFINKRT | 3.36 |
| ELRNVQDVVEDYKKRCEEEINKRT | 3.51 |
| ELRNVQDVVEDYKKHYEEEINKRT | 2.8 |
| ELRNQQDVVEDYKKRYEEEINKRT | 4.24 |
| ELRNVQDVPEDYKKRYEEEINKRT | 4.21 |
| ELRNVQDVVMDYKKRYEEEINKRT | 3.57 |
| EGRNVQDVVEDYKKRYEEEINKRT | 5.65 |

| Variant | protein stability index |
| --- | --- |
| ELRNVQDVVEDYKVRYEEEINKRT | 4.45 |
| ELRNVQDVVEDYKKDYEEEINKRT | 3.35 |
| ELRCVQDVVEDYKKRYEEEINKRT | 3.9 |
| ELRNVQDVVEDYKKYYEEEINKRT | 3.43 |
| ELRNVQDVVEDIKKRYEEEINKRT | 3.13 |
| ELRNVHDVVEDYKKRYEEEINKRT | 3.15 |
| ELRNVQDVVEDYIKRYEEEINKRT | 3.27 |
| ELRNVQEVVEDYKKRYEEEINKRT | 3.1 |
| ELRNVQDVVEDYKKRYEEEINLRT | 3.28 |
| ELRNVQDVVEDYKKRYEEEIYKRT | 3.65 |
| ELRNVQDVVEDYKKRYEEEISKRT | 4.27 |
| ELRNVQDVVEDYKKRYEEWINKRT | 2.92 |
| ELRNVQDVVEDSKKRYEEEINKRT | 4.26 |
| ELRNVQDVVEDYKKRNEEEINKRT | 4.1 |
| ELRNVNDVVEDYKKRYEEEINKRT | 4.58 |
| ELRNVQDVVEDYKKRYEEEINNRT | 4.11 |
| ELRNVQDVVEDYKKRYECEINKRT | 4.57 |
| ELRNVQDVVEDYKKRYEEGINKRT | 3.65 |
| ELRNVQDVVCDYKKRYEEEINKRT | 3.62 |
| ELRYVQDVVEDYKKRYEEEINKRT | 3.59 |
| ELRNVQDCVEDYKKRYEEEINKRT | 3.77 |
| ELRNVQDVVEDYKCRYEEEINKRT | 3.3 |
| ELRNMQDVVEDYKKRYEEEINKRT | 3.87 |
| ELRNVQDVVEDYKKRYEEIINKRT | 3.39 |

| Variant | protein stability index |
| --- | --- |
| ELRNVQDVVEDYKKRAEEEINKRT | 4.43 |
| ELRNVQDVVEDYKKKYEEEINKRT | 3.22 |
| ELRNVQDVVNDYKKRYEEEINKRT | 4.22 |
| ELRNSQDVVEDYKKRYEEEINKRT | 4.01 |
| ELRNVQDVVEDPKKRYEEEINKRT | 3.53 |
| ELRNVQDVVEDYKKRVEEEINKRT | 3.76 |
| ELRNVYDVVEDYKKRYEEEINKRT | 3.18 |
| ELRNVQHVVEDYKKRYEEEINKRT | 3.13 |
| ELRNVQDVVEDYKKRYEEELNKRT | 4.32 |
| ELRNVQDVVFDYKKRYEEEINKRT | 4.36 |
| ELRNVQDVVEDYKKRYEEEINDRT | 3.57 |
| ELRNVQDVVEDQKKRYEEEINKRT | 4.12 |
| ELRNVQDVVEDYKKRYEDEINKRT | 3.48 |
| ELRNVQDVVEDYKKVYEEEINKRT | 3.05 |
| ELRNDQDVVEDYKKRYEEEINKRT | 4.58 |
| ELRNVQDVVEHYKKRYEEEINKRT | 3.77 |
| ELRNVQDVVEDVKKRYEEEINKRT | 4.23 |
| ELRNVQDVVEDYKKRYEEERNKRT | 3.22 |
| ELTNVQDVVEDYKKRYEEEINKRT | 3.35 |
| ELRNVQDVVSDYKKRYEEEINKRT | 3.65 |
| ELRNVQDDVEDYKKRYEEEINKRT | 4.42 |
| ELRNVQDVVEDYKKRYEEEINKRE | 4.57 |
| ELRNVQDVVEDYKKRYEEEILKRT | 3.83 |
| ELRNVQDVVEDYKKRYEEPINKRT | 4.28 |

| Variant | protein stability index |
| --- | --- |
| ELRNVQDVVEDYKKRYEEENNKRT | 4 |
| ELRNVSDVVEDYKKRYEEEINKRT | 4.01 |
| ELRNVQDVVEDYMKRYEEEINKRT | 3.12 |
| ELRNVQDVVEDCKKRYEEEINKRT | 4.07 |
| ELRNVQDVVEDYKKRYEEEIAKRT | 4.15 |
| ELRSVQDVVEDYKKRYEEEINKRT | 4.32 |
| ENRNVQDVVEDYKKRYEEEINKRT | 5.02 |
| ELRNVQDVVEDYKKRYEEEQNKRT | 3.74 |
| ELRAVQDVVEDYKKRYEEEINKRT | 4.38 |
| ELRNVQDVVEDYKKRYEWEINKRT | 3.11 |
| ELRNVQDVVEDYKKRYEEMINKRT | 2.73 |
| ELRNVQDVVEDYWKRYEEEINKRT | 3.34 |
| FLRNVQDVVEDYKKRYEEEINKRT | 4.14 |
| ELRNVQDVVEDYKKRLEEEINKRT | 4.31 |
| ESRNVQDVVEDYKKRYEEEINKRT | 5.01 |
| ELRNVQDVVEDYKKRYEEEINCRT | 4.19 |
| ELRNVQDKVEDYKKRYEEEINKRT | 3.43 |
| ELRNVQDVVEDYKKRYEEEINWRT | 3.9 |
| ELRNVQDVVEDYKKREEEEINKRT | 4.33 |
| ELRNIQDVVEDYKKRYEEEINKRT | 3.88 |
| ELRNVQDVVEDYKKRYEETINKRT | 4.16 |
| ELRNVQDVVEDYKKRQEEEINKRT | 3.52 |
| ELRNVQDVVEDYKKRYEEEINRRT | 4.21 |
| ELRNVQDVVEDYKKEYEEEINKRT | 3.49 |

| Variant | protein stability index |
| --- | --- |
| ELRNVQDVVEDYKKRYEEEICKRT | 3.73 |
| ELRNVQDVVEDYKKRYEESINKRT | 3.69 |
| ELRNVQDVVEDYQKRYEEEINKRT | 3.71 |
| ELRNVQDVVEDYKKRYEEEINKMT | 3.03 |
| ELRNVQDVVEDYKKRYEEECNKRT | 4.07 |
| ELRNVQDPVEDYKKRYEEEINKRT | 3.67 |
| ELRNVKDVVEDYKKRYEEEINKRT | 3.75 |
| ELRNVQDVVEDYKKRYEEYINKRT | 2.88 |
| ELRNVQDVVVDYKKRYEEEINKRT | 3.11 |
| ECRNVQDVVEDYKKRYEEEINKRT | 3.53 |
| ELRNVQDVVESYKKRYEEEINKRT | 3.69 |
| ELRNVQDVVEDYKKRYEEEINKYT | 3.98 |
| ELRNVQDVVEDYKLRYEEEINKRT | 2.97 |
| ELRNNQDVVEDYKKRYEEEINKRT | 3.59 |
| ELRNVQDVVEDYKRRYEEEINKRT | 3.51 |
| ELRNVQDVVEDYKKRYFEEINKRT | 3.93 |
| ELRNVQAVVEDYKKRYEEEINKRT | 3.68 |
| ELRNYQDVVEDYKKRYEEEINKRT | 3.64 |
| ELRNVQDVVQDYKKRYEEEINKRT | 3.13 |
| ELRNVQDVVEDYKKRYEEESNKRT | 4.25 |
| ELRNVQDVREDYKKRYEEEINKRT | 2.95 |
| ELRNVQDVVEAYKKRYEEEINKRT | 3.55 |
| ELRNVQDVVHDYKKRYEEEINKRT | 3.71 |
| ELRNVQDVVEDYKKRYLEEINKRT | 4.43 |

| Variant | protein stability index |
| --- | --- |
| ELRNVQDVVEDYKKRYCEEINKRT | 3.24 |
| ELRNVQDVKEDYKKRYEEEINKRT | 3.48 |
| ELRNVQDVVEDHKKRYEEEINKRT | 4.09 |
| ELRNVQDVVEDFKKRYEEEINKRT | 3.85 |
| ELRNRQDVVEDYKKRYEEEINKRT | 3.22 |
| ELRNVQDVVEDYKKRYNEEINKRT | 4.29 |
| ELRNVQDVVEDYKKRYEEEWNKRT | 3.2 |
| ELRNVQDVVEDYKKRYEEEIQKRT | 3.51 |
| ELRNVQDVVEDYKERYEEEINKRT | 4.51 |
| ELRNVQDVVEDYKKRYEEEINKST | 4.27 |
| ELRNVQDHVEDYKKRYEEEINKRT | 2.88 |
| ELRNVQDVVEDYKKQYEEEINKRT | 4.26 |
| ELRNVQDVVEDYRKRYEEEINKRT | 4.62 |
| ELRNVQDWVEDYKKRYEEEINKRT | 3.73 |
| HLRNVQDVVEDYKKRYEEEINKRT | 4.05 |
| ELRNVQDVVEDYKKRYEEEINKAT | 3.34 |
| ELRNVQDVVEDYKKRYEEEINERT | 3.43 |
| ELRNVQDVVEDYKKRWEEEINKRT | 2.68 |
| EPRNVQDVVEDYKKRYEEEINKRT | 4.96 |
| ELRNVQDVVEDYKKRYEEEINMRT | 3.92 |
| ELYNVQDVVEDYKKRYEEEINKRT | 3.86 |
| ELRNVQDVVEDYKKRFEEEINKRT | 2.96 |
| ELRPVQDVVEDYKKRYEEEINKRT | 4.67 |
| KLRNVQDVVEDYKKRYEEEINKRT | 3.95 |

| Variant | protein stability index |
| --- | --- |
| ELRNVQDVVEDYKKRKEEEINKRT | 3.75 |
| ELRNVQDVVEDYKKRYEEEPNKRT | 3.71 |
| ELRNVQDVVEDYKKRYEEEINKLT | 3.63 |
| ELRWVQDVVEDYKKRYEEEINKRT | 3.17 |
| ELRNVQDVVEDYKKAYEEEINKRT | 4.63 |
| ELRNVQDVVEDMKKRYEEEINKRT | 4.56 |
| ELRNVQDVVEDYEKRYEEEINKRT | 4.74 |
| ELRNVQDVVEDYKKRYEEEIMKRT | 2.79 |
| ELRNVQSVVEDYKKRYEEEINKRT | 3.6 |
| ELRNVQDVVEDYKKRYEEEINKRS | 3.4 |
| GLRNVQDVVEDYKKRYEEEINKRT | 2.72 |
| ELRNVQDVVEDYKKRYEEEGNKRT | 4.05 |
| ELRNVQDVVEDYKKRYEEEIIKRT | 1.94 |
| ELRNVQDVSEDYKKRYEEEINKRT | 4.35 |
| ELRNVQDVVEDYKKRYEEAINKRT | 3.94 |
| ELRNVQDVVETYKKRYEEEINKRT | 3.63 |
| ELRNEQDVVEDYKKRYEEEINKRT | 4.43 |
| ELRNVQDVVEDYKKRYEEEINKET | 4.63 |
| ELRNVQDVVEDYKKRYEIEINKRT | 3.07 |
| ELRNVQCVVEDYKKRYEEEINKRT | 3.35 |
| ELRNVQDVVEDYKKRYEEEIFKRT | 3.55 |
| ELRNGQDVVEDYKKRYEEEINKRT | 3.92 |
| ELRNVQDVGEDYKKRYEEEINKRT | 4.2 |
| ELRNVQDVVEDYKKRYEEEMNKRT | 4.12 |

| Variant | protein stability index |
| --- | --- |
| ELRNVPDVVEDYKKRYEEEINKRT | 4.41 |
| ELRNVQDVVEDYKKRYEEEIKKRT | 4.54 |
| ELRRVQDVVEDYKKRYEEEINKRT | 4.48 |
| ELRNVQDVQEDYKKRYEEEINKRT | 3.66 |
| ELRNVQDVVEDYKKSYEEEINKRT | 3.63 |
| ELRNVQDVVEDYKYRYEEEINKRT | 3.47 |
| ELRNVQDVVEDYGKRYEEEINKRT | 3.93 |
| ELRNVQDVVEDYKKRYREEINKRT | 4.12 |
| ELENVQDVVEDYKKRYEEEINKRT | 4.15 |
| ELRNVQDVVEDYKKRYEEEINKRN | 3.14 |
| ELLNVQDVVEDYKKRYEEEINKRT | 2.37 |
| ELRNVQDVVEDYSKRYEEEINKRT | 3.51 |
| ELRNVQDVVEDYKKRYEYEINKRT | 3.85 |
| ELHNVQDVVEDYKKRYEEEINKRT | 2.78 |
| ELRNVQDVVEDKKKRYEEEINKRT | 3.08 |
| ELRNVIDVVEDYKKRYEEEINKRT | 2.54 |
| ELRNVQDVVEDYKHRYEEEINKRT | 4.26 |
| ELRNVQDVWEDYKKRYEEEINKRT | 4.36 |
| ELRNVQDVVEDYKKRYKEEINKRT | 3.24 |
| ELRNVQDVVEDYNKRYEEEINKRT | 3.34 |
